Target: T1, GST-EZH2 fragment A, N-terminal region (Domain I + Domain II), aa 1-522 (UniProt Q15910 1-522)
T1 construct: Cloned in pGEX-4T-1; also called fragment A of EZH2; source: E. coli BL21, purified (Glutathione Sepharose 4B)
T1 sequence (looked up): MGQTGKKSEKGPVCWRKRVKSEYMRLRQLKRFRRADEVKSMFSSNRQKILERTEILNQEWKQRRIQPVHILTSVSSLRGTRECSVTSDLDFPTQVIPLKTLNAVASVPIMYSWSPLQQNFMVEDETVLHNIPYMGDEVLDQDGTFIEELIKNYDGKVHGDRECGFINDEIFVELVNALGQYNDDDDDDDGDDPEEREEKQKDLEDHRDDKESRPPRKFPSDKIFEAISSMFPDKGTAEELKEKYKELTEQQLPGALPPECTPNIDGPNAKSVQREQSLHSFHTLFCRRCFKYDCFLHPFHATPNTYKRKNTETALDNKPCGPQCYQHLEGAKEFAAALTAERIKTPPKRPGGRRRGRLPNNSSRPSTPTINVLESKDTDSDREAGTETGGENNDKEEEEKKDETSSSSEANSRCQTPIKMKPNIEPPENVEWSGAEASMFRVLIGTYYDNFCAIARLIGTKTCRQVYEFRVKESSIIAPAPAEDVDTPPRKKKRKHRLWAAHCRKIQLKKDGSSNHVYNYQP
Assay: pull-down; in vitro pull-down with purified proteins: GST-EZH2 (aa 1-522) and MBP-TFIIIC102 fragment C (aa 524-886)
Details: both partners purified

B1: MBP-TFIIIC102 fragment C (aa 524-886) (domain or fragment, UniProt Q9Y5Q9 524-886, looked up)
chain: QDANAAQQELKLLLHRSTLLFSQGKMYGYVDTLLTMLAMLLKVAMNRAQVCLISSSKSGERHLYLIKVSRDKISDSNDQESANCDAKAIFAVLTSVLTKDDWWNLLLKAIYSLCDLSRFQEAELLVDSSLEYYSFYDDRQKRKELEYFGLSAAILDKNFRKAYNYIRIMVMENVNKPQLWNIFNQVTMHSQDVRHHRFCLRLMLKNPENHALCVLNGHNAFVSGSFKHALGQYVQAFRTHPDEPLYSFCIGLTFIHMASQKYVLRRHALIVQGFSFLNRYLSLRGPCQESFYNLGRGLHQLGLIHLAIHYYQKALELPPLVVEGIELDQLDLRRDIAYNLSLIYQSSGNTGMAQTLLYTYCSI
notes: source: purified
binding result: binds
